In patent publication US20140286957A1 (Teva, published 2014):
Where two headings read alike, the source gives them in different places.

How the values were obtained:
Human CD1d on cells [1] = molecular target: T1, Human CD1d on cells (human, UniProt P15813 20-335); assay: cell-based or functional assay
T1 sequence (looked up): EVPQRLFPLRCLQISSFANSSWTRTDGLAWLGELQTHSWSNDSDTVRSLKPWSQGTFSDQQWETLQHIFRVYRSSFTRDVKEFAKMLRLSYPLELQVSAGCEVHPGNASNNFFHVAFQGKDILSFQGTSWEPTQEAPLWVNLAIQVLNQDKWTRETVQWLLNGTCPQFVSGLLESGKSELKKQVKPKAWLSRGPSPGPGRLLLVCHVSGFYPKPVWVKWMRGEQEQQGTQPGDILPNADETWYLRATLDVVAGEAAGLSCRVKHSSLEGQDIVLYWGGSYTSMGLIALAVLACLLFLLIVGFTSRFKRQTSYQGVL

Human CD1d/β2M [2] = molecular target: T2, Human CD1d/β2M (human, UniProt P15813 20-301; P61769 21-119); assay: SPR, transfection supernatant
T2 construct: also called hCD1d; recombinant human CD1d

Human CD1d on cells [3] = molecular target: T1, Human CD1d on cells; assay: cell-based or functional assay; remark: listed apart in the source
Human CD1d/β2M [4] = molecular target: T2, Human CD1d/β2M; assay: SPR
Human CD1d on cells [5] = molecular target: T1, Human CD1d on cells; assay: cell-based or functional assay; remark: listed apart in the source
Human CD1d on cells [6] = molecular target: T1, Human CD1d on cells; assay: cell-based or functional assay; remark: listed apart in the source
Human CD1d on cells [7] = molecular target: T1, Human CD1d on cells; assay: cell-based or functional assay; remark: listed apart in the source

B1: 402.8.54 (antibody, IgG4, V domains shown)
VH: QVQLQESGPGLVKPSETLSLTCAVYGGSFSGYYWSWIRQPPGKGLEWIGEINHAGSTNYNPSLKSRVTISVDTSKNQFSLKLSSVTAADTAVYYCARGEIYDFWKSYMEVWGKGTTVTVSS
VL: QTVVTQEPSLTVSPGGTVTLTCASSSGAVSSGNFPNWFQQKPGQAPRALIFSASNKHSWTPARFSGSLLGGKAVLTLSGVQPEDEAEYYCLLYFGDTQLGVFGGGTKVTVL
Human CD1d on cells [1]
  NKT IFN-γ EC50 (moDC): 138 ng/mL
  NKT IL-4 EC50 (moDC): 109 ng/mL

B2: 402.8.55 (antibody, IgG4, V domains shown)
VH: QVQLQESGPGLVKPSETLSLTCAVYGGSFSGYYWSWIRQPPGKGLEWIGEINHAGSTNYNPSLKSRVTISVDTSKNQFSLKLSSVTAADTAVYYCARGEIYDFWKSYLEVWGKGTTVTVSS
VL: QTVVTQEPSLTVSPGGTVTLTCASSSGAVSSGNFPNWFQQKPGQAPRALIFSASNKHSWTPARFSGSLLGGKAVLTLSGVQPEDEAEYYCLLYFGDTQLGVFGGGTKVTVL
Human CD1d on cells [1]
  NKT IFN-γ EC50 (moDC): 445 ng/mL
  NKT IL-4 EC50 (moDC): 175 ng/mL

B3: 401.11.85 (antibody, name in Kabat numbering, V domains shown)
VH: QVQLVGSGGGLVKPGRSLRLSCAASGFTFDDYAMHWVRQAPGKGLEWVATIIWNSAIIGYADSVKGRFIVSRDNAKNSLYLQMNSLRAEDMALYYCAKDMCSSYGCPDGYFDSWGQGTLVTVSS
VL: DIQMTQSPSSVSASVGDRVTITCRASQHISSWLAWYQQKPGKAPNLLIYAASSLQSGVSSRFSGSGSGTDFTLTISSLQPEDFATYYCQQANRFPLTFGGGTKLEIKR
Human CD1d/β2M [2]
  Kd: 82.3 nM

B4: 401.11.177 (antibody, V domains shown)
VH: QVQLVGSGGGLVKPGRSLRLSCAASGFTFDDYAMHWVRQAPGKGLEWVATIIWNSAIIGYADSVKGRFIVSRDNAKNSLYLQMNSLRAEDTALYYCAKDICSSGGCPDGYFDSWGQGTLVTVSS
VL: DIQMTQSPSSVSASVGDRVTITCRASQHISSWLAWYQQKPGKAPKLLIYAASSLQSGVPSRFSGSGSGTDFTLTISSLQPEDFATYYCQQANRFPLTFGGGTKLEIK
Human CD1d on cells [3]
  NKT IFN-γ EC50 (moDC): 7.56 ng/mL
  NKT IL-4 EC50 (moDC): 0.731 ng/mL
  NKT IL-5 EC50 (moDC): 1.4 ng/mL
  NKT IL-13 EC50 (moDC): 1.27 ng/mL
Human CD1d/β2M [4]
  Kd: 0.507 nM

B5: 401.11.180 (antibody, IgG4, V domains shown)
VH: QVQLVGSGGGLVKPGRSLRLSCAASGFTFDDYAMHWVRQAPGKGLEWVATIIWNSAIIGYADSVKGRFIVSRDNAKNSLYLQMNSLRAEDTALYYCAKDLCSSGGCPEGYFDSWGQGTLVTVSS
VL: DIQMTQSPSSVSASVGDRVTITCRASQHISSWLAWYQQKPGKAPKLLIYAASSLQSGVPSRFSGSGSGTDFTLTISSLQPEDFATYYCQQANRFPLTFGGGTKLEIKR
Human CD1d on cells [3]
  NKT IFN-γ EC50 (moDC): 49.5 ng/mL
  NKT IL-4 EC50 (moDC): 1.31 ng/mL
  NKT IL-5 EC50 (moDC): 3.35 ng/mL
  NKT IL-13 EC50 (moDC): 4.09 ng/mL

B6: 401.11.151 (antibody, IgG4, V domains shown)
VH: EVQLVESGGGLVQPGRSLRLSCAASGFTFDDYAMHWVRQAPGKGLEWVATIIWNSAIIGYADSVKGRFIVSRDNAKNSLYLQMNSLRAEDTALYYCAKDMCSSSGCPDGYFDSWGQGTLVTVSS
VL: DIQMTQSPSSVSASVGDRVTITCRASQHISSWLAWYQQKPGKAPKLLIYAASSLQSGVPSRFSGSGSGTDFTLTISSLQPEDFATYYCQQANRFPLTFGGGTKLEIKR
Human CD1d on cells [5]
  NKT IL-4 EC50 (moDC): 12.9 ng/mL
  NKT IL-13 EC50 (moDC): 57.5 ng/mL

B7: 401.11.167 (antibody, IgG4, V domains shown)
VH: EVQLVESGGGLVQPGRSLRLSCAASGFTFDDYAMHWVRQAPGKGLEWVATIIWNSAIIGYADSVKGRFIVSRDNAKNSLYLQMNSLRAEDTALYYCAKDMCSSGGCPDGYFDSWGQGTLVTVSS
VL: DIQMTQSPSSVSASVGDRVTITCRASQHISSWLAWYQQKPGKAPNLLIYAASSLQSGVPSRFSGSGSGTDFTLTISSLQPEDFATYYCQQANRFPLTFGGGTKLEIKR
notes: IgG4 (S228P)
Human CD1d on cells [6]
  NKT IFN-γ EC50 (THP-1): 6.51 ng/mL
  NKT IL-4 EC50 (THP-1): 2.89 ng/mL
  NKT IL-5 EC50 (THP-1): 4.98 ng/mL
  NKT IL-13 EC50 (THP-1): 7.46 ng/mL
  NKT TNF EC50 (THP-1): 4 ng/mL
Human CD1d/β2M [4]
  Kd: 0.17 nM

B8: 401.11.179 (antibody, IgG4, V domains shown)
VH: QVQLVGSGGGLVKPGRSLRLSCAASGFTFDDYAMHWVRQAPGKGLEWVATIIWNSAIIGYADSVKGRFIVSRDNAKNSLYLQMNSLRAEDTALYYCAKDMCSSGGCPEGYFDSWGQGTLVTVSS
VL: DIQMTQSPSSVSASVGDRVTITCRASQHISSWLAWYQQKPGKAPKLLIYAASSLQSGVPSRFSGSGSGTDFTLTISSLQPEDFATYYCQQANRFPLTFGGGTKLEIKR
notes: IgG4 (S228P)
Human CD1d on cells [3]
  NKT IFN-γ EC50 (moDC): 30.2 ng/mL
  NKT IL-4 EC50 (moDC): 0.73 ng/mL
  NKT IL-5 EC50 (moDC): 2.1 ng/mL
  NKT IL-13 EC50 (moDC): 2.43 ng/mL
Human CD1d/β2M [4]
  Kd: 0.274 nM

B9: 401.11.178 (antibody, V domains shown)
VH: QVQLVGSGGGLVKPGRSLRLSCAASGFTFDDYAMHWVRQAPGKGLEWVATIIWNSAIIGYADSVKGRFIVSRDNAKNSLYLQMNSLRAEDTALYYCAKDLCSSGGCPDGYFDSWGQGTLVTVSS
VL: DIQMTQSPSSVSASVGDRVTITCRASQHISSWLAWYQQKPGKAPKLLIYAASSLQSGVPSRFSGSGSGTDFTLTISSLQPEDFATYYCQQANRFPLTFGGGTKLEIK
Human CD1d on cells [3]
  NKT IFN-γ EC50 (moDC): 15.1 ng/mL
  NKT IL-4 EC50 (moDC): 0.969 ng/mL
  NKT IL-5 EC50 (moDC): 1.38 ng/mL
  NKT IL-13 EC50 (moDC): 1.76 ng/mL
Human CD1d/β2M [4]
  Kd: 0.468 nM

B10: 401.11.154 (antibody, IgG4, V domains shown)
VH: QVQLVGSGGGLVKPGRSLRLSCAASGFTFDDYAMHWVRQAPGKGLEWVATIIWNSAIIGYADSVKGRFIVSRDNAKNSLYLQMNSLRAEDTALYYCAKDMCSSSGCPDGYFDSWGQGTLVTVSS
VL: DIQMTQSPSSVSASVGDRVTITCRASQHISSWLAWYQQKPGKAPKLLIYAASSLQSGVPSRFSGSGSGTDFTLTISSLQPEDFATYYCQQANRFPLTFGGGTKLEIKR
notes: IgG4 (S228P)
Human CD1d on cells [5]
  NKT IL-4 EC50 (moDC): 4.16 ng/mL
  NKT IL-13 EC50 (moDC): 17.7 ng/mL
Human CD1d/β2M [4]
  Kd: 1.77 nM

B11: 401.11.152 (antibody, IgG4, V domains shown)
VH: EVQLVESGGGLVQPGRSLRLSCAASGFTFDDYAMHWVRQAPGKGLEWVATIIWNSAIIGYADSVKGRFIVSRDNAKNSLYLQMNSLRAEDTALYYCAKDMCSSSGCPDGYFDSWGQGTLVTVSS
VL: DIQMTQSPSSVSASVGDRVTITCRASQHISSWLAWYQQKPGKAPKLLIYAASSLQSGVSSRFSGSGSGTDFTLTISSLQPEDFATYYCQQANRFPLTFGGGTKLEIKR
notes: IgG4 (S228P)
Human CD1d on cells [5]
  NKT IL-4 EC50 (moDC): 10.2 ng/mL
  NKT IL-13 EC50 (moDC): 78.5 ng/mL
Human CD1d/β2M [4]
  Kd: 2.83 nM

B12: 401.11.166 (antibody, IgG4, V domains shown)
VH: EVQLVESGGGLVQPGRSLRLSCAASGFTFDDYAMHWVRQAPGKGLEWVATIIWNSAIIGYADSVKGRFIVSRDNAKNSLYLQMNSLRAEDTALYYCAKDMCSSGGCPDGYFDSWGQGTLVTVSS
VL: DIQMTQSPSSVSASVGDRVTITCRASQHISSWLAWYQQKPGKAPKLLIYAASSLQSGVSSRFSGSGSGTDFTLTISSLQPEDFATYYCQQANRFPLTFGGGTKLEIKR
notes: IgG4 (S228P)
Human CD1d on cells [6]
  NKT IFN-γ EC50 (THP-1): 6.98 ng/mL
  NKT IL-4 EC50 (THP-1): 2.75 ng/mL
  NKT IL-5 EC50 (THP-1): 5.38 ng/mL
  NKT IL-13 EC50 (THP-1): 7.25 ng/mL
  NKT TNF EC50 (THP-1): 4.02 ng/mL
Human CD1d/β2M [4]
  Kd: 0.173 nM

B13: 401.11.159 (antibody, IgG4, V domains shown)
VH: EVQLVESGGGLVQPGRSLRLSCAASGFTFDDYAMHWVRQAPGKGLEWVATIIWNSAIIGYADSVKGRFIVSRDNAKNSLYLQMNSLRAEDMALYYCAKDMCSSGGCPDGYFDSWGQGTLVTVSS
VL: DIQMTQSPSSVSASVGDRVTITCRASQHISSWLAWYQQKPGKAPKLLIYAASSLQSGVSSRFSGSGSGTDFTLTISSLQPEDFATYYCQQANRFPLTFGGGTKLEIKR
Human CD1d on cells [5]
  NKT IL-4 EC50 (moDC): 1.69 ng/mL
  NKT IL-13 EC50 (moDC): 10.5 ng/mL

B14: 401.11.181 (antibody, IgG4, V domains shown)
VH: QVQLVESGGGLVKPGRSLRLSCAASGFTFDDYAMHWVRQAPGKGLEWVATIIWNSAIIGYADSVKGRFIVSRDNAKNSLYLQMNSLRAEDTALYYCAKDMCSSGGCPDGYFDSWGQGTLVTVSS
VL: DIQMTQSPSSVSASVGDRVTITCRASQHISSWLAWYQQKPGKAPKLLIYAASSLQSGVPSRFSGSGSGTDFTLTISSLQPEDFATYYCQQANRFPLTFGGGTKLEIKR
Human CD1d on cells [7]
  NKT IFN-γ EC50 (THP-1): 3.25 ng/mL
  NKT IFN-γ EC50 (moDC): 2.63 ng/mL
  NKT IL-4 EC50 (THP-1): 3.19 ng/mL
  NKT IL-4 EC50 (moDC): 1.1 ng/mL
  NKT IL-13 EC50 (THP-1): 5.04 ng/mL

B15: 401.11.165 (antibody, IgG4, V domains shown)
VH: EVQLVESGGGLVQPGRSLRLSCAASGFTFDDYAMHWVRQAPGKGLEWVATIIWNSAIIGYADSVKGRFIVSRDNAKNSLYLQMNSLRAEDTALYYCAKDMCSSGGCPDGYFDSWGQGTLVTVSS
VL: DIQMTQSPSSVSASVGDRVTITCRASQHISSWLAWYQQKPGKAPKLLIYAASSLQSGVPSRFSGSGSGTDFTLTISSLQPEDFATYYCQQANRFPLTFGGGTKLEIKR
notes: IgG4 (S228P)
Human CD1d on cells [6]
  NKT IFN-γ EC50 (THP-1): 6.15 ng/mL
  NKT IL-4 EC50 (THP-1): 1.11 ng/mL
  NKT IL-5 EC50 (THP-1): 3.73 ng/mL
  NKT IL-13 EC50 (THP-1): 5.76 ng/mL
  NKT TNF EC50 (THP-1): 3.04 ng/mL
Human CD1d/β2M [4]
  Kd: 0.168 nM
